Holding throughout (assay type): cell-based
Assay [1] has as its target T1, phosphorylated GFP-TDP43CTF reporter (Homo sapiens, UniProt Q13148).
T1 construct: expressed in transfected cells; host or cells: HEK293
Briefly: Immunoblot with anti-phospho TDP43 antibody (cell extracts and fractions). Conditions: cell extracts, anti-phosphoTDP43 antibody, Table 13 (FIG. 12).

In assay [2] the target is T1, phosphorylated GFP-TDP43CTF reporter. The assay is described as above. The text has this: Cells expressing either GFP-TDP43FL (lanes 1 and 7) or GFP-TDP43CTF (lanes 2-6, 8-12) were co-transfected with Construct 3 (lanes 3 and 9), Construct 17 (lanes 4 and 10), Construct 18 (lanes 5 and 11) and Construct 19 (lanes 6 and 12). Soluble fractions (lanes 1-6) and insoluble fractions (lanes 7-12) were probed with anti-phospho TDP43 antibodies.
(§1) Expression vector plasmids encoding various protein constructs were transfected into HEK293 cells with Lipofectamine 3000 transfection reagent (Thermo Fisher Scientific). Cell lysates were analyzed for expressed proteins using immunoblot assays. Samples of culture media were centrifuged to remove debris prior to analysis. Cells were lysed in a lysis buffer (10 mM Tris-HCl, pH 8.0, 150 mM NaCl, 10 mM EDTA, 2% SDS) containing 2 mM PMSF and protease cocktail (Complete Protease Inhibitor Cocktail; Sigma). After brief sonication, the samples were analyzed for expressed proteins using immunoblot assays. For immunoblot analysis, samples were boiled in an SDS-sample buffer and run on polyacrylamide electrophoresis. Thereafter, the separated protein bands were transferred to a PVDF membrane.
(§2) Expressed proteins were detected using a chemiluminescent signal. Briefly, blots were reacted with a primary antibody capable of binding the particular epitope (e.g., GFP). After rinsing away the unreacted primary antibody, a secondary, enzyme-linked antibody (e.g., HRP-linked anti-lgG antibody) was allowed to react with the primary antibody molecules bound to the blots. Following rinsing, a chemiluminescent reagent was added, and the resultant chemiluminescent signals in the blots were captured on X-ray film.
Transfected HEK293 cells are homogenized in RIPA buffer (50 mM Tris, pH7.5, 150 mM NaCl, 0.1% NP-40, 0.5% sodium deoxycholate, 0.1% SDS) supplemented with protease inhibitor cocktail, 2 mM PMSF, 10 mM NaF, and 2 mM Na3VO4. After brief sonication, protein concentration is measured by BCA assay kit (Pierce). […]

The target of another assay is T2, GFP-TDP43CTF (Homo sapiens, UniProt Q13148).
T2 construct: expressed in transfected cells; host or cells: HEK293
Briefly: Fluorescence microscopy of GFP-TDP43CTF aggregation (GFP foci) in transfected HEK293 cells. Particulars: HEK293 cells; for % Aggregation (normalized to GFP-TDP43CTF alone): GFP-TDP43CTF reporter. On the procedure:
as §1
In some instances, aggregation of TDP-43 (full-length of C-terminal fragment) GFP reporter constructs (described below) were detected in vivo using fluorescence microscopy. Cultured cells expressing the reporter constructs as well as the fusion protein comprising the J domain and TDP-43-binding domain were washed with PBS and fixed with 4% paraformaldehyde in PBS for 5 minutes. After three 5-min washes with PBS, nuclear DNA was stained with DAPI. Percentage of cells containing TDP-43 (GFP foci) in transfected cells was counted.
We first investigated whether the fusion molecule of the present invention targeting TDP-43 ameliorates its aggregation in cultured cells. To this end, we generated GFP-based reporter constructs GFP-TDP43 and GFP-TDP43, wherein GFP was fused at its C-terminus to either the full-length human TDP-43 protein or the C-terminal fragment TDP-43 which is known to form cytoplasmic aggregation and cytotoxicity (See Table 8 below). HEK293 cells were cultured and transfected with the plasmids encoding the full-length TDP43 or the C-terminal fragment of TDP43, containing the C-terminal 207 amino acids TDP-43 (amino acids 208-414 of human TDP-43) as a GFP fusion [GFP-TDP43FL (SEQ ID NO: 101) or GFP-TDP43CTF (SEQ ID NO: 102)].

The target of assay [3] is T3, GFP-TDP43FL (Homo sapiens, UniProt Q13148).
T3 construct: expressed in transfected cells; host or cells: HEK293
As to the kind of experiment: Immunoblot (anti-GFP) of reporter level in cell extracts. Particulars: cell extracts (FIG. 5). On the procedure: as §1, §2

Assay [4] concerns the target T3, GFP-TDP43FL. As to the kind of experiment: Fluorescence microscopy of GFP-TDP43FL aggregation (GFP foci) in transfected HEK293 cells. Conditions: GFP-TDP43FL reporter, HEK293 cells, Table 10 (FIG. 3/4). On the procedure: as §1
In some instances, aggregation of TDP-43 (full-length of C-terminal fragment) GFP reporter constructs (described below) were detected in vivo using fluorescence microscopy. Cultured cells expressing the reporter constructs as well as the fusion protein comprising the J domain and TDP-43-binding domain were washed with PBS and fixed with 4% paraformaldehyde in PBS for 5 minutes. After three 5-min washes with PBS, nuclear DNA was stained with DAPI. Percentage of cells containing TDP-43 (GFP foci) in transfected cells was counted. […]

B1: 15 (protein)
chain: MDYYKILGVDKNASEDEIKKAYRKRALMHHPDRHSGASAEVQKEEEKKFKEVGEAFTILSDPKKKTRYDSGQDIGGGGSGGGGSGGGGSGGGGSAAAEVQLQQSGAELVKPGASVKLSCTASGFNIKDYYMHWVKQRTEQGLEWIGRIDPEDGETKYAPKFQGKATITADTSSNTAYLQLSSLTSEDTAVYYCTIIYYYGSRYVDYWGQGTTLTVSGGGGSGGGGSGGGGSEIVLTQSPTTMAASPGEKITITCSASSSISSSYLHWYQQKPGFSPKLLIYRTSNLASGVPARFSGSGSGTSYSLTIGTMEAEDVATYYCQQGSSIPLTFGSGTKLEI
Turning to B1, in assay [1], the “% Phospho-TDP43 density (normalized to GFP-TDP43CTF alone)” value is listed as 47.89%.

B2: Construct 16: comprises a J domain without the consensus HPD sequence (SEQ ID NO: 16), fused to scFv(3B12A) (protein)
chain: MGQDYYSVLGITRNSEDAQIKQAYRRLALKHHPLKSNEPSSAEIFRQIAEAYDVLSDPMKRGIYDKFGEEGLKGGDIGGGGSGGGGSGGGGSGGGGSAAAEVQLQQSGAELVKPGASVKLSCTASGFNIKDYYMHWVKQRTEQGLEWIGRIDPEDGETKYAPKFQGKATITADTSSNTAYLQLSSLTSEDTAVYYCTIIYYYGSRYVDYWGQGTTLTVSGGGGSGGGGSGGGGSEIVLTQSPTTMAASPGEKITITCSASSSISSSYLHWYQQKPGFSPKLLIYRTSNLASGVPARFSGSGSGTSYSLTIGTMEAEDVATYYCQQGSSIPLTFGSGTKLEI
As to B2, the “ability to reduce aggregation of the GFP-TDP43CTF reporter construct (in words, with Tables 13 and 14)” value in assay [2] (HEK293 cells) was “not able to reduce aggregation”.

B3: 16 (protein)
chain: MGQDYYSVLGITRNSEDAQIKQAYRRLALKHHPLKSNEPSSAEIFRQIAEAYDVLSDPMKRGIYDKFGEEGLKGGDIGGGGSGGGGSGGGGSGGGGSAAAEVQLQQSGAELVKPGASVKLSCTASGFNIKDYYMHWVKQRTEQGLEWIGRIDPEDGETKYAPKFQGKATITADTSSNTAYLQLSSLTSEDTAVYYCTIIYYYGSRYVDYWGQGTTLTVSGGGGSGGGGSGGGGSEIVLTQSPTTMAASPGEKITITCSASSSISSSYLHWYQQKPGFSPKLLIYRTSNLASGVPARFSGSGSGTSYSLTIGTMEAEDVATYYCQQGSSIPLTFGSGTKLEI
For B3, the “% Phospho-TDP43 density (normalized to GFP-TDP43CTF alone)” value in assay [1] was 106.49%.

B4: 11 (protein)
chain: MSVVGLDVGSQSCYIAVARAGGIETIANEFSDRCTPSVISFGSKNRTIGVAAKNQQITHANNTVSNFKRFHGRAFNDPFIQKEKENLSYDLVPLKNGGVGIKVMYMGEEHLFSVEQITAMLLTKLKETAENSLKKPVTDCVISVPSFFTDAERRSVLDAAQIVGLNCLRLMNDMTAVALNYGIYKQDLPSLDEKPRIVVFVDMGHSAFQVSACAFNKGKLKVLGTAFDPFLGGKNFDEKLVEHFCAEFKTKYKLDAKSKIRALLRLYQECEKLKKLMSSNSTDLPLNIECFMNDKDVSGKMNRSQFEELCAELLQKIEVPLYSLLEQTHLKVEDVSAVEIVGGATRIPAVKERIAKFFGKDISTTLNADEAVARGCALQCAILSPAFKVREFSVTDAVPFPISLIWNHDSEDTEGVHEVFSRNHAAPFSKVLTFLRRGPFELEAFYSDPQGVPYPEAKIGRFVVQNVSAQKDGEKSRVKVKVRVNTHGIFTISTASMVEKVPTEENEMSSEADMECLNQRPPENPDTDANEKKVDQPPEAKKPKIKVVNVELPIEANLVWQLGKDLLNMYIETEGKMIMQDKLEKERNDAKNAVEEYVYEFRDKLCGPYEKFICEQDHQNFLRLLTETEDWLYEEGEDQAKQAYVDKLEELMKIGTPVKVRFQEAEERPKMFEELGQRLQHYAKIAADFRNKDEKYNHIDESEMKKVEKSVNEVMEWMNNVMNAQAKKSLDQDPVVRAQEIKTKIKELNNTCEPVVTQPKPKIESPKLERTPNGPNIDKKEEDLEDKNNFGAEPPHQNGECYPNEKNSVNMDLD
Regarding B4, in the assay with GFP-TDP43CTF (Table 12 (FIG. 8/9A)), the “% Aggregation (normalized to GFP-TDP43CTF alone)” value stood at 115.34%.

B5: Construct 2: scFv(3B12A)-only control; binds TDP-43 (protein)
scFv: MGTGSEFDIAAAEVQLQQSGAELVKPGASVKLSCTASGFNIKDYYMHWVKQRTEQGLEWIGRIDPEDGETKYAPKFQGKATITADTSSNTAYLQLSSLTSEDTAVYYCTIIYYYGSRYVDYWGQGTTLTVSGGGGSGGGGSGGGGSEIVLTQSPTTMAASPGEKITITCSASSSISSSYLHWYQQKPGFSPKLLIYRTSNLASGVPARFSGSGSGTSYSLTIGTMEAEDVATYYCQQGSSIPLTFGSGTKLEI
Regarding B5, the “levels of the full-length reporter construct (GFP-TDP43FL), anti-GFP immunoblot (in words)” value with GFP-TDP43FL [3] is “No differences”. Further, the “aggregation of GFP-TDP43CTF reporter in cells (in words)” value in the assay with GFP-TDP43CTF (vs reporter alone) was “did not reduce aggregation”.

B6: 2 (protein)
scFv: MGTGSEFDIAAAEVQLQQSGAELVKPGASVKLSCTASGFNIKDYYMHWVKQRTEQGLEWIGRIDPEDGETKYAPKFQGKATITADTSSNTAYLQLSSLTSEDTAVYYCTIIYYYGSRYVDYWGQGTTLTVSGGGGSGGGGSGGGGSEIVLTQSPTTMAASPGEKITITCSASSSISSSYLHWYQQKPGFSPKLLIYRTSNLASGVPARFSGSGSGTSYSLTIGTMEAEDVATYYCQQGSSIPLTFGSGTKLEI
For the molecule B6, the “% Aggregation (normalized to GFP-TDP43CTF alone)” value with GFP-TDP43FL [4] is on record as 5.86%; in the assay with GFP-TDP43CTF (Table 10 (FIG. 3/4)), 80.05%; in the assay with GFP-TDP43CTF (Table 12 (FIG. 8/9A)) it was 98.40%. Also, the “% Phospho-TDP43 density (normalized to GFP-TDP43CTF alone)” value in assay [1] came out at 122.81%.

B7: 19 (protein)
chain: MGKDYYQTLGLARGASDEEIKRAYRRQALRYHPDKNKEPGAEEKFKEIAEAYDVLSDPRKREIFDRYGEEGLKGSEVQLQQSGAELVKPGASVKLSCTASGFNIKDYYMHWVKQRTEQGLEWIGRIDPEDGETKYAPKFQGKATITADTSSNTAYLQLSSLTSEDTAVYYCTIIYYYGSRYVDYWGQGTTLTVSGGGGSGGGGSGGGGSEIVLTQSPTTMAASPGEKITITCSASSSISSSYLHWYQQKPGFSPKLLIYRTSNLASGVPARFSGSGSGTSYSLTIGTMEAEDVATYYCQQGSSIPLTFGSGTKLEI
For B7, the “% Phospho-TDP43 density (normalized to GFP-TDP43CTF alone) Insoluble fraction” value in assay [2] (insoluble fraction, Table 14 (FIG. 14)) is recorded as 22.77%. Further, the “% Phospho-TDP43 density (normalized to GFP-TDP43CTF alone) Soluble fraction” value in assay [2] (soluble fraction, Table 14 (FIG. 14)) is listed as 11.20%.

The record behind these values is patent US20240327477A1, “COMPOSITIONS AND METHODS FOR THE TREATMENT OF TDP-43 PROTEINOPATHIES” (SOLA BIOSCIENCES LLC, priority 2020, published 2024).
